In this assay the target is Phenylalanine hydroxylase from Legionella pneumophila (Legionella pneumophila) (UniProt Q5ZS72). The experiment in a line: crystal structure.

Turning to “Phenylalanine hydroxylase from Legionella pneumophila (from UniProt Q5ZS72 1-272) (enzyme)”, the stoichiometry N – broadly, the number of molecules, sites or subunits per partner or assembly – is 2.
